As a reminder, the Kd is the concentration at which binding is half-saturated.

This assay addresses T1, AFP-L3与凝集素复合物 (Lens culinaris, UniProt P02870 31-210; P02870 218-269, limits assumed).
T1 construct: Non-covalent complex of recombinant AFP (AFP-L3 glycoform) with lentil lectin, mass ratio AFP-L3:lectin 1:5; immobilised on a CM5 chip for SPR; Native LCA consists of processed alpha and beta chains; also called AFP-L3与LCA复合物; AFP-L3-LCA复合物
T1 sequence 1: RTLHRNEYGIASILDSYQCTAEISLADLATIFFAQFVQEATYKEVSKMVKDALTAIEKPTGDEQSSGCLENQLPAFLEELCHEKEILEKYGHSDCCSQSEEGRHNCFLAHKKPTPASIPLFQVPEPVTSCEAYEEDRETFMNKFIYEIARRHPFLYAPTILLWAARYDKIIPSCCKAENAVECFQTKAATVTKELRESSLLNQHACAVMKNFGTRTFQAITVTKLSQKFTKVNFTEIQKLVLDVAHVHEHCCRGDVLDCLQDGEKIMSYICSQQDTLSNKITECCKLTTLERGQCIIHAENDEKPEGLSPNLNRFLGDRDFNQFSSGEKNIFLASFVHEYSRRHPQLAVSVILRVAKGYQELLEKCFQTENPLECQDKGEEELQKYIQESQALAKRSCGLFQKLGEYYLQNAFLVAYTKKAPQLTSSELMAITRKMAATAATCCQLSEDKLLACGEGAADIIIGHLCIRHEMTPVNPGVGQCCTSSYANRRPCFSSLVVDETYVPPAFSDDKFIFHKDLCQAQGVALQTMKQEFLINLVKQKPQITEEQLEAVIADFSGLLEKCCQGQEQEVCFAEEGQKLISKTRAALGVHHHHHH
T1 sequence 2: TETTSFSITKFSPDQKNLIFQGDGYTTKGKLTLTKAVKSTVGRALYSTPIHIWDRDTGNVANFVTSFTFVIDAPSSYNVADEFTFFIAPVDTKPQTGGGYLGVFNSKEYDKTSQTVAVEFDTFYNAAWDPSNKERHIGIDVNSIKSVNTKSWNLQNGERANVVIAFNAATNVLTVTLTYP
T1 sequence 3: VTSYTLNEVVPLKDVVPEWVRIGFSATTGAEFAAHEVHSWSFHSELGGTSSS
The assay can be described thus: SPR, Biacore T200, complex immobilised on CM5 chip, antibody as analyte. (In SPR one partner is held on a chip, and binding of the other changes the refractive index at the surface.)

B1: Ab-03 (antibody, mouse IgG1, kappa, V domains shown)
VH: QVQLQQSGPEVVRPGVSVKISCKGSGYTFTDYAMQWVKQSHAKSLEWIGVISTYNGNTNYNQKFKGKATMTVDKSSSTAYMELARLTSEDSAIYYCARSLYYGSSPYAMDYWGQGTSVTVSS
VL: DIVMSQSPSSLAVSAGEKVTMSCKSSQSLLNSRTRKNYLAWYQQKPGQSPKLLIYWASTRESGVPDRFTGSGSGTDFTLTISSVQAEDLAVYYCKQSYNLFTFGSGTKLEIKR
notes: Mouse hybridoma antibody from ascites, Protein A purified; also called 针对AFP-L3与凝集素复合物的单克隆抗体; Ab-03抗体株
The molecule B1 gave a Kd of 2.66 nM.

These data come from patent publication CN115716874A (SHENZHEN ZHUORUN BIOTECHNOLOGY CO LTD, dated 2023).
